Non-standard residues stand in square brackets, D forms with d. Primed or numbered codes have the meaning given here. PEG(2)″ = polyethylene glycol containing substituent with 2 ethyleneoxy subunits; Hyp = O=C(O)[C@@H]1C[C@@H](O)CN1; Chg = N[C@H](C(=O)O)C1CCCCC1; ΔPro = O=C(O)[C@@H]1C=CCN1
B1: Ac-(4-trans-L-Hyp)ASChgQ-S(TIC)-acid (peptide)
peptide: XASXQSX
modifications: N-terminal acetyl; 4-trans-L-Hyp (trans-4-hydroxy-L-proline) at position 1 (written X); Chg (cyclohexylglycine) at position 4 (written X); TIC (1,2,3,4-tetrahydro-3-isoquinoline carboxylic acid) at position 7 (written X); C-terminal free acid
B2: Ac-(Dehydro-Pro)-ASChgQ-SL-acid (peptide)
peptide: Ac-[ΔPro]AS[Chg]QSL-OH
SMILES: CC(=O)N1CC=C[C@H]1C(=O)N[C@@H](C)C(=O)N[C@@H](CO)C(=O)N[C@H](C(=O)N[C@@H](CCC(N)=O)C(=O)N[C@@H](CO)C(=O)N[C@@H](CC(C)C)C(=O)O)C1CCCCC1
B3: Ac-(4-trans-L-Hyp)ChgQ-SSSL-acid (peptide)
peptide: Ac-[Hyp][Chg]QSSSL-OH
SMILES: CC(=O)N1C[C@H](O)C[C@H]1C(=O)N[C@H](C(=O)N[C@@H](CCC(N)=O)C(=O)N[C@@H](CO)C(=O)N[C@@H](CO)C(=O)N[C@@H](CO)C(=O)N[C@@H](CC(C)C)C(=O)O)C1CCCCC1

Target: free prostate specific antigen (PSA) (human, UniProt P07288 25-261)
Test: cell-based or functional assay

| Binder | Time to 50% Substrate Cleavage by PSA (Min); the cell gives the percent cleaved at 3 hours [% cleaved at 3 hours] |
| --- | --- |
| B1 | 16 |
| B2 | 28 |
| {PEG(2)″}-[Hyp]AS[Chg]QSL-OH [PEG(2)-(4-trans-L-Hyp)-ASChgQ-SL-acid] | 44 |
| B3 | 0 |
